Columns and labels:
[1] = tested on: B cells of transplant recipient; experiment: Ex vivo IgM and IgG production by transplant recipient B cells; set-up: species or system mouse; details: C3H heart in C57BL/6; sCD83 100 μg daily i.p.; B cells day 8, LPS, 72 hours
Protocol: IgM & IgG production: C57B1/6 mice were given a heterotopic cardiac allograft from a C3H mouse. Mice then were left untreated or were treated with a daily dose of 100 μg of sCD83 by intraperitoneal injection. Mice were then sacrificed on day 8, which was approximately the mean survival time of untreated mice. B cells were harvested from the spleens of recipient mice and cultured at 2×10^6 B-cells/well with 20 ug/mL LPS (to induce antibody production, with no added sCD83). After 72 hours of culture, supernatants were harvested and IgM and IgG production measured by ELISA.
Eight days after transplantation (when the transplant would typically be rejected in untreated mice), the mice were sacrificed. B cells were purified from recipient mice, cultured, and stimulated with LPS. After 72 hours of culture, supernatants were collected and IgM and IgG production was measured using ELISA.

[2] = tested on: C3H Hearts in BALB/c Recipients; experiment: Heterotopic heart transplantation, graft survival, C3H to BALB/c; details: sCD83 100 μg i.p. daily day -1 to 28, sirolimus 2 mg/kg oral day 0-14, anti-CD45RB 100 μg i.v. day 0-14
Protocol: Hearts were removed from donor mice as indicated and transplanted into the peritoneal cavity of recipient mice (i.e., heterotopic transplantation). Recipient mice were treated as indicated, with some treatments beginning prior to transplantation. Survival of the allograft was monitored and scored as follows: “A,” beating strongly; “B,” mild decline in the intensity of pulsation; “C,” noticeable decline in the intensity of pulsation; “D,” complete cessation of cardiac impulses. Mean survival time of the transplanted tissue was determined for each treatment.
In a first set of experiments, C3H donor mice and BALB/c recipient mice were used. In this set of experiments, sCD83 treatment began on day −1 (i.e., the day prior to transplantation) and lasted until day 28; each day, 100 μg of sCD83 was administered to each mouse by intraperitoneal injection. Sirolimus treatment began on day 0 (i.e., the day of transplantation) and continued until day 14; each day, 2 mg/kg of sirolimus was administered orally to each mouse. Anti-CD45RB treatment began on day 0 and continued until day 14; each day, 100 μg of anti-CD45RB (BioExpress, Inc., West Lebanon, New Hampshire) was administered to each mouse intravenously.

monocytes = experiment: TNF-α and activation markers in monocytes of PBMCs; format: cell-based, cynomolgus monkeys; details: PBMCs incubated overnight with sCD83
Protocol: To evaluate the effect of sCD83 on monocytes, isolated PBMCs (1×10^6 cells) from cynomolgus monkeys were incubated overnight with sCD83 (1×10^6 cells). Intracellular TNF-α levels and surface markers were detected in monocytes using FACS. Results representative of one out of three experiments are shown in FIG. 12; results were expressed as % positive cells and mean fluorescence units (MFU).

CD4+ T cells = experiment: Regulatory T cell generation from purified CD4+ T cells; format: cell-based, cynomolgus monkeys; details: CD4+ T cells stimulated for 6 days
Excerpt: To evaluate the effect of sCD83 on CD4^+ T cells, these cells were purified from cynomolgus monkeys and then stimulated in the presence or absence of sCD83 or anti-CD28 mAb for 6 days. Cells were then stained to identify regulatory T cells (i.e., CD4^+CD25^+ Foxp3^+ cells) and analyzed by FACS.

[3] = tested on: mouse immunostimulatory dendritic cells and mouse T cells; experiment: Allogenic MLR assay with murine BM-DCs and T cells; format: cell-based
Protocol: C57/BL6 mice and BALB/C mice (male or female; Charles River, Wiga, Sulzfeld, Germany) were used at the ages of between 1 and 4 months. Generation of bone-marrow-derived dendritic cells (“BM-DCs”) was performed as described in Lutz et al. (1999) J. Immunol. Meth. 223: 77. RPMI 1640 (Life Technologies, Karlsruhe, Germany) was supplemented with 100 U/ml penicillin (Sigma), 100 μg/ml streptomycin (Sigma), 2 mM L-glutamine (Sigma), […] (Sigma), and 10% heat-inactivated filtered FCS (PAA, Colbe, Germany). GM-CSF was used at 200 U/ml (PrepoTech/Tebu, Rocky Hill, N.J.) on days 0, 3, 6 and 8 of the incubation period.
An allogenic MLR assay was performed as follows: CD4^+ and CD8^+ T cells were isolated from inguinal and […] lymph nodes of BALB/C mice and co-cultured (2×10^5 cells/well) for 3 days with BM-DCs (at different ratios) that had been processed through day 9 of the preparation protocol for BM-DCs. Culture was in 96-well culture dishes, and the media was 200 microliters RPMI 1640 supplemented with 100 U/ml penicillin, 100 µg/ml streptomycin, 2 mM L-glutamine, […], and 10% heat-inactivated filtered FCS. […] The culture supernatants were harvested onto glass fiber filters using an Inotech 1H-110 harvester (Inotech, Dottikon, Switzerland), and filters were counted in a Wallac 1450 microplate counter (Wallac, Turku, Finnland).

B1: sCD83: recombinant extracellular domain of human CD83 cleaved from GST fusion, with four extra amino acids (Gly-Ser-Pro-Gly) at the amino terminal (protein, listed as Homo sapiens)
chain: GSPGTPEVKVACSEDVDLPCTAPWDPQVPYTVSWVKLLEGGEERMETPQEDHLRGQHYHQKGQNGSFDAPNERPYSLKIRNTTSCNSGTYRCTLQDPDGQRNLSGKVILRVTGCPAQRKEETFKKYRAE
modifications: printed: Gly-Ser-Pro-Gly; (1)..(125) Extracellular domain of human CD83
notes: recombinant extracellular domain of human CD83 cleaved from GST fusion, with four extra amino acids (Gly-Ser-Pro-Gly) at the amino terminal
For B1, the “Ex vivo antibody production (IgM and IgG, ELISA)” value [1] was “suppresses”, the “MST” value [2] was 10.0 ± 1.4 days and the “In vitro production of TNF-α by monocytes” value (monocytes) was “moderately suppressed”. The “Surface expression of monocyte activation markers” value (monocytes) was “moderately suppressed”, the “Generation of regulatory T cells (CD4+CD25+ Foxp3+ cells)” value (CD4+ T cells) was “promoted the generation of regulatory T cells” and the “Cluster formation between dendritic cells and T cells” value [3] was “inhibited”. The “Ability of murine immunostimulatory dendritic cells to stimulate T cells” value ([3]; [3H]-thymidine) was “inhibited in a concentration-dependent manner”.

From patent US20230158109A1, “USE OF CD83 IN COMBINATION THERAPIES” (Colmmune, Inc., priority 2006, published 2023)
